# Laboratory results reported in patent publication US20220031857A1 (OSSIANIX, published 2022).
# “And” between values parts separate entries of the source, which are not always exact repeats. Equal values may be shown once.
# T1: recombinant mouse TfR2 (mouse, UniProt Q9JKX3 103-798, limits assumed)
# T1 construct: Negative control protein
# T1 sequence (looked up): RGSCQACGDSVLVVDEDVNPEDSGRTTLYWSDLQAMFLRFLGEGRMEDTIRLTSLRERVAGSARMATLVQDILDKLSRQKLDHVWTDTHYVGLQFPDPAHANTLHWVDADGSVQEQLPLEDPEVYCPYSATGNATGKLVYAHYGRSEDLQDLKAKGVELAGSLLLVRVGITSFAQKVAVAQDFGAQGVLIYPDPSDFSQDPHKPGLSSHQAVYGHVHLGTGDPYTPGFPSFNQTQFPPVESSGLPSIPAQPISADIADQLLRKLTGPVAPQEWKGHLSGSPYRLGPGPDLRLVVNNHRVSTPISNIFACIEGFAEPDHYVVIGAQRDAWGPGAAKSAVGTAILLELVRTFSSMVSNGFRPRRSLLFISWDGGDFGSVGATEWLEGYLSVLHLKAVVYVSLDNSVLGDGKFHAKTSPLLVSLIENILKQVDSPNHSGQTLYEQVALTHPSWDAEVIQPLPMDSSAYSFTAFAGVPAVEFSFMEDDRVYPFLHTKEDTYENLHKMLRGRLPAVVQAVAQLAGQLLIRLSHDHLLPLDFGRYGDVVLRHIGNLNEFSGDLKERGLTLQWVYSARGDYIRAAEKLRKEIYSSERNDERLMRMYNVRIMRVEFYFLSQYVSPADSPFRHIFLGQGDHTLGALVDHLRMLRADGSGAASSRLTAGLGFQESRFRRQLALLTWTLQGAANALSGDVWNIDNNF
# B1: Clone 10 VNAR-Fc fusion protein (Fc fusion)
# chain: ARVDQTPQTITKETGESLTINCVLRDSNCALSSTYWYRKKSGSTNEENISKGGRYVETVNSGSKSFSLRINDLTVEDSGTYRCNVVQYPSYNNYFWCDVYGDGTAVTVNA
# notes: Bivalent VNAR-Fc; also called clone 10-Fc; Clone 10-hFc; not shown: glycine/serine linker (GxSx)n extending the hinge; human IgG1 Fc (hinge, CH2, CH3) of pFUSE-hIgG1e3-Fc2; G236 also deleted
# B2: Clone 1 VNAR-Fc fusion protein (Fc fusion)
# chain: ARVDQTPQTITKETGESLTINCVLRDNNCALSTTYWYRKKSGSTNEENISKGGRYVETVNSGSKSFSLKINDLTVEDSGTYRCNVRDVQACGNDWVWLDVYGGGTVVTVNA
# notes: Bivalent VNAR-Fc; also called clone 1-Fc; not shown: glycine/serine linker (GxSx)n extending the hinge; human IgG1 Fc (hinge, CH2, CH3) of pFUSE-hIgG1e3-Fc2; G236 also deleted
# B3: Clone 2 VNAR-Fc fusion protein (Fc fusion)
# chain: ARVDQTPQTITKETGESLTINCVLRDNNCALSTTYWYRKKSGSTNEENISKGGRYVETVNSGSKSFSLKINDLTVEDSGTYRCNVFGVDNGWWCDVYGGGTVVTVNA
# notes: Bivalent VNAR-Fc; not shown: glycine/serine linker (GxSx)n extending the hinge; human IgG1 Fc (hinge, CH2, CH3) of pFUSE-hIgG1e3-Fc2; G236 also deleted
# B4: Clone 39 VNAR-Fc fusion protein (Fc fusion)
# chain: ARVDQTPQTITKETGESLTINCVLRDSNCALSSTLWYRTKSGSRNEESISKGGRYVETVNSGSKSFSLKINDLTVEDSGTYRCNVQGMVYDGSSFWWCDVYGDSTAVTVNA
# notes: as for B3
# B5: Clone 12 VNAR-Fc fusion protein (Fc fusion)
# chain: ARVDQTPQTITKETGESLTINCVLRDSICALSSTHWYRKKSGSTNEESISKGGRYVETVNSGSKSFSLRINDLTVEDSGTYRCKVVRSGVGPCWADVYGGGTAVTVNA
# notes: as for B3
# B6: Clone 16 VNAR-Fc fusion protein (Fc fusion)
# chain: ARVDQTPQTITKETGESLTINCVLRDSNCALPSTYWYRKKSGSTNEESISKGGRYVETVNSGSKSFSLRINDLTVKDSGTYRCKVDLPRYLCFSQYGRWYDVYGDGTAVTVNA
# notes: as for B3
# B7: Clone 7 VNAR-Fc fusion protein (Fc fusion)
# chain: ARVDQTPQTITKETGESLTINCVLRDSNCELSSTYWYRKKSGSTNEARISKGGRYVETVNSGSKSFSLKINDLTVEDSGTYRCNVLTTDSYDLGDVYGDGTVVTVNA
# notes: as for B3
# B8: IDUA-clone 1-hFc (Fc fusion)
# chain (part 1 of 2): B2 chain
# chain (part 2 of 2): APHLVHVDAARALWPLRRFWRSTGFCPPLPHSQADQYVLSWDQQLNLAYVGAVPHRGIKQVRTHWLLELVTTRGSTGRGLSYNFTHLDGYLDLLRENQLLPGFELMGSASGHFTDFEDKQQVFEWKDLVSSLARRYIGRYGLAHVSKWNFETWNEPDHHDFDNVSMTMQGFLNYYDACSEGLRAASPALRLGGPGDSFHTPPRSPLSWGLLRHCHDGTNFFTGEAGVRLDYISLHRKGARSSISILEQEKVVAQQIRQLFPKFADTPIYNDEADPLVGWSLPQPWRADVTYAAMVVKVIAQHQNLLLANTTSAFPYALLSNDNAFLSYHPHPFAQRTLTARFQVNNTRPPHVQLLRKPVLTAMGLLALLDEEQLWAEVSQAGTVLDSNHTVGVLASAHRPQGPADAWRAAVLIYASDDTRAHPNRSVAVTLRLRGVPPGPGLVYVTRYLDNGLCSPDGEWRRLGRPVFPTAEQFRRMRAAEDPVAAAPRPLPAGGRLTLRPALRLPSLLLVHVCARPEKPPGQVTRLRALPLTQGQLVLVWSDEHVGSKCLWTYEIQFSQDGKAYTPVSRKPSTFNLFVFSPDTGAVSGSYRVRALDYWARPGPFSDPVPYLEVPVPRGPPSPGNP
# notes: Order of the parts follows the text's 'VNAR-Fc-IDUA'; Made in CHO cells; also called clone 1 VNAR-Fc-IDUA fusion protein; not shown: human Fc fragment (hFc)
# B9: IDUA-clone 10-hFc (Fc fusion)
# chain (part 1 of 2): B1 chain
# chain (part 2 of 2): B8 chain (part 2 of 2)
# notes: Order of the parts follows the text's 'VNAR-Fc-IDUA'; Made in CHO cells; also called clone 10 VNAR-Fc-IDUA fusion protein; not shown: human Fc fragment (hFc)
# Biological target: T2, recombinant mouse TfR1 (transferrin receptor 1) (mouse, UniProt Q62351 89-763)
# T2 construct: Bought recombinant His-tagged protein; also called mTfR1
# Test: SPR (Biacore), single-cycle kinetics, His-tagged TfR1 captured, VNAR-Fc injected
# Method: (§1) Binding kinetics of VNAR-Fcs was determined by surface plasmon resonance (Biacore T200, GE Healthcare). CM5 chips were coated with anti-His antibodies (His Capture Kit, GE Healthcare) as recommended by the manufacturer and human or mouse his-tagged TfR1 (SinoBiological) at 10 ug/mL in HBS-EP+ (GE Healthcare) was captured at flow rate 10 ul/min (contact time 120 s). […] A flow cell without TfR1 captured served as a reference. Sensorgrams were fitted and kinetic constants were determined using Biacore T200 Evaluation software. Chips were regenerated in 10 mM Glycine-HCl, pH 1.5 (contact time: 120 s at flow rate 30 ul/min).
# T2 sequence (Q62351 89-763 limits assumed): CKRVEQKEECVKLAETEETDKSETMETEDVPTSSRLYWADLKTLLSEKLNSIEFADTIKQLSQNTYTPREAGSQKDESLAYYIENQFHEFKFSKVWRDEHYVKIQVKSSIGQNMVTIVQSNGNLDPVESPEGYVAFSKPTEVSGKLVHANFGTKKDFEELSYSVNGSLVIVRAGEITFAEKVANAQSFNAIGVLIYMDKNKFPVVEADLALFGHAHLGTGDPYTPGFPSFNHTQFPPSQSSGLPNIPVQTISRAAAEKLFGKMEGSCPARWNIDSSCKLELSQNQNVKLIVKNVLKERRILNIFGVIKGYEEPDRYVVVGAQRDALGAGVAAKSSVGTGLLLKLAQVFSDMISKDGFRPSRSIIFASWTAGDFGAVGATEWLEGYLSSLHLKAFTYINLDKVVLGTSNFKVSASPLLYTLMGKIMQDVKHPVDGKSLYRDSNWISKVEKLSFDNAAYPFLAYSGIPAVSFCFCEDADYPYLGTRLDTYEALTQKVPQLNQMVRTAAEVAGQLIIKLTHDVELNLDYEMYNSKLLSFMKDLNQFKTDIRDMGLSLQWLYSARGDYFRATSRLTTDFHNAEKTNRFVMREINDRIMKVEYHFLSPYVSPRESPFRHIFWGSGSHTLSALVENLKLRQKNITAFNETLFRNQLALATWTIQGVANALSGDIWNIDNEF
Binder,Kd [nM],koff [s⁻¹],kon [M⁻¹ s⁻¹]
B1,0.408,0.000116,285000
B2,3.34,0.00025,74700
B3,2.56,0.000501,195000

# Biological target: T3, recombinant human TfR1 (transferrin receptor 1) (human, UniProt P02786 89-760)
# T3 construct: Bought recombinant His-tagged protein; also called hTfR1
# Test: as above
# Method: as §1
# T3 sequence (P02786 89-760 limits assumed): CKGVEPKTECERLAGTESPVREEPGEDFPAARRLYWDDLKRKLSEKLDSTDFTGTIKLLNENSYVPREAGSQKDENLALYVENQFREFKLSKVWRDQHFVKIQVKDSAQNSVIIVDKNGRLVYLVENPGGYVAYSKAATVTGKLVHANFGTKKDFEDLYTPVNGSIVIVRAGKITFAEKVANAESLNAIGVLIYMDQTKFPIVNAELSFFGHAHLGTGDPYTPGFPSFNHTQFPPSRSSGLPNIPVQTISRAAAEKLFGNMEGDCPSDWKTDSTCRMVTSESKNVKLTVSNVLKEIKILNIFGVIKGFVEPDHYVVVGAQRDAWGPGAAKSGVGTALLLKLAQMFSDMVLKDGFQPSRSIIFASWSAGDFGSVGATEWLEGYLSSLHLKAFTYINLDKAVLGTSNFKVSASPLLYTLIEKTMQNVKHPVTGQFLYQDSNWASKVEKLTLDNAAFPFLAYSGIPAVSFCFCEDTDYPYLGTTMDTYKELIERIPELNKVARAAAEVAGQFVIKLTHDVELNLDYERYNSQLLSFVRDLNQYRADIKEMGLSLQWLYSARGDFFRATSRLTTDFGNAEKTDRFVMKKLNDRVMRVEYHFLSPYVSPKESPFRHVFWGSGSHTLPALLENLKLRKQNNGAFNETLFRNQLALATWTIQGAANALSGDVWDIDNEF
Binder,Kd [nM],koff [s⁻¹],kon [M⁻¹ s⁻¹]
B1,0.523,0.00016,306000
B2,1.87,0.000123,66000
B4,7.22,0.000684,94700
B3,2.34,0.000445,190000

# Biological target: T2, recombinant mouse TfR1 (transferrin …)
# Test: ELISA, plate coated with 1 µg/ml recombinant mouse TfR1, purified VNAR-Fc titrated, 4-parameter fit
# Method: (§2) It was previously reported that affinity might play a crucial role in TfR1 mediated brain penetration. […] Affinity estimation and unspecific binding was initially assessed using ELISA for human and mouse TfR1.
# (§3) The next day the plates were blocked with […] with 0.1% Tween20 (PBST) for 1 hour at room temperature. Transfected cells were spun down at 2000 rpm for 10 minutes and the collected supernatant was mixed with milk in PBST to a final 2.5% concentration and incubated for 30 minutes. 100 μl of blocked supernatant was transferred into coated plates and incubated for 1 hour. […] The plates were washed and developed with TMB detection solution before stopping the reaction with 1% HCl. Absorbance was measured at 450 nm. A VNAR-Fc at know concentration was used for standard curve to calculate VNAR-Fc expression level.
row,Binder,EC50 [nM]
1,B1,11.9
2,B5,1560
3,B6,7180
4,B2,15.9
5,B7,5370
6,B4,1530

# Biological target: T3, recombinant human TfR1 (transferrin …)
# Test: Octet, human TfR1 immobilised; 8D3 as first antibody, which does not bind human TfR1 (grey column); white cell
# Method: FIGS. 15A and 15B. Epitope binning by cross-competition binding to mouse and human TfR1. VNAR-Fc fusion proteins were tested for cross-blocking in a pairwise manner against mouse (A) and human TfR1 (B) immobilised on biosensors using the Octet platform.
# A series of biochemical parameters was examined to further characterize the panel VNAR to TfR1 obtained from in vivo phage display selections. Epitope binning experiments were performed to assess whether the VNARs could compete against each other for binding to either the mouse or human TfR1. […] Because each VNAR binds via a unique CDR3 region with a different structural topography, steric interactions could be important efficient transcytosis.
row,Binder,Octet signal as second antibody after 8D3
1,B1,0.546
2,B5,0.403
3,B2,0.329
4,B4,0.609
5,B3,0.454

# Biological target: T2, recombinant mouse TfR1 (transferrin …)
# Test: SPR (Biacore), single-cycle kinetics, His-tagged TfR1 captured, VNAR-Fc injected; SPR single cycle kinetics, immobilised mouse TfR1, VNAR-Fc up to 250 nM
# Method: as §1
Binder,Kd [nM],koff [s⁻¹],kon [M⁻¹ s⁻¹]
B4,18.3,0.00294,161000

# Biological target: T3, recombinant human TfR1 (transferrin …)
# Test: ELISA, plate coated with 1 µg/ml recombinant human TfR1, purified VNAR-Fc titrated, 4-parameter fit
# Method: as §2, §3
row,Binder,EC50 [nM]
1,B1,2.45
2,B5,151
3,B6,3110
4,B2,4.67
5,B7,463
6,B4,257

# Biological target: T2, recombinant mouse TfR1 (transferrin …)
# Test: Octet, mouse TfR1 on anti-His biosensors, analyte 10 nM, PBS pH 6.0
# Method: (§4) Binding kinetics of selected VNAR-Fcs to mouse TfR1 at pH 7.2 and pH 6.0 was measured by […] (Octet). Mouse TfR1 (10 μg/ml) was immobilised on anti-His biosensors and the binding kinetics of VNAR-Fcs and 8D3 antibody (10 nM) was measured at pH 7.2 and pH 6.0 in phosphate buffered saline (PBS) (Table 8).
Binder,Kd [nM],koff [s⁻¹],kon [M⁻¹ s⁻¹]
B1,0.419,0.0003,715000
B2,0.541,0.00036,666000

# Biological target: T1, recombinant mouse TfR2
# Test: ELISA with Expi293 culture medium used directly, coated mouse TfR2, anti-Fc detection
# Method: (§5) FIG. 6. […] The VNAR-Fc fusion proteins were transiently expressed using Expi293 expression system. VNAR-Fc constructs contained signal peptide sequence in order to be secreted. Cell growth media was used directly in ELISA. HSA and mouse TfR2 were used as negative controls for unspecific binding. A clone in position 52 represents untransfected cells. Total Fc concentration was measured with capture and detection anti-Fc antibody pair using irrelevant VNAR-Fc at known concentration for standard curve.
# as §3
row,Binder,binding result
1,B1,no binding
2,B5,no binding
3,B2,no binding
4,B7,no binding
5,B4,no binding
6,B3,no binding

# Biological target: T2, recombinant mouse TfR1 (transferrin …)
# Test: ELISA, plate coated with 1 µg/ml recombinant mouse TfR1, purified VNAR-Fc titrated, 4-parameter fit; Clone 2 stands twice in the legend
row,Binder,EC50
1,B3,433 nM and 761 nM

# Biological target: T2, recombinant mouse TfR1 (transferrin …)
# Test: Octet, mouse TfR1 on anti-His biosensors, analyte 10 nM, PBS pH 7.2
# Method: as §4
Binder,Kd [nM],koff [s⁻¹],kon [M⁻¹ s⁻¹]
B1,0.0703,4.43e-05,630000
B2,0.363,0.000292,804000

# Biological target: T4, human serum albumin (human, UniProt P02768 25-609)
# T4 construct: Negative control protein; also called HSA
# Test: ELISA with Expi293 culture medium used directly, coated HSA, anti-Fc detection
# Method: as §5, §3
# T4 sequence (P02768 25-609 limits assumed): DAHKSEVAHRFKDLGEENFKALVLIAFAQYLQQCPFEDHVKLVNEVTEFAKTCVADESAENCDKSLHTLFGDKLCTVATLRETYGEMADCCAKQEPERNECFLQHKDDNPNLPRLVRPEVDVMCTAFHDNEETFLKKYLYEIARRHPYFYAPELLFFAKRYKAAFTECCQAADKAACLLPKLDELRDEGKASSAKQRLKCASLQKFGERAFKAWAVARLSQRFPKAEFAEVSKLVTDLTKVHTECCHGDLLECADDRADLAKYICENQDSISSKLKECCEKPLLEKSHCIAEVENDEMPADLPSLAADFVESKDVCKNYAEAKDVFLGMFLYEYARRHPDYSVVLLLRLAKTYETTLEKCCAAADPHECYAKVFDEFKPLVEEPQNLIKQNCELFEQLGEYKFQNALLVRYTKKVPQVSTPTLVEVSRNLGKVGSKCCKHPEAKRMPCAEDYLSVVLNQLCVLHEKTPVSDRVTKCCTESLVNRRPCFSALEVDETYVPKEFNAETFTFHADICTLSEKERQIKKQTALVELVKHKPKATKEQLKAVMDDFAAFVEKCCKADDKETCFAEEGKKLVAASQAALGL
row,Binder,binding result
1,B1,no binding
2,B5,no binding
3,B2,no binding
4,B7,no binding
5,B4,no binding
6,B3,no binding

# Biological target: T2, recombinant mouse TfR1 (transferrin …)
# Test: ELISA on mouse TfR1
row,Binder,EC50 [nM]
1,B1,2.96
2,B2,4.83
3,B8,7.24
4,B9,8.33
